Measured values reported in patent publication US5444041A, “Convertible microemulsion formulations” (Ibah, Inc., priority 1992, dated 1995).

What was measured:
Spraque-Dawley rats = assay: Rectal instillation of calcitonin microemulsions, serum Ca+2 in rats; type: in vivo, rat
Protocol: A series of experiments was carried out in rats using the w/o microemulsions of this invention to evaluate them as a vehicle for the rectal delivery of the peptide calcitonin, (used in the treatment of hypercalcemia by lowering Ca++ serum levels), whereby the body fluids of the rat would serve to convert the microemulsion to an o/w emulsion and thus release the calcitonin.
Formulations were produced which ranged from 3% to 15% (v/v) aqueous phase and which ranged from liquids to gels at room temperature. The formulations contained, in addition to the aqueous phase, one to three oils and a blend of two emulsifiers. […] Three formulations with different oil blends were chosen for biological evaluation in juvenile, male rat model (Spraque-Dawley rats; 140-170 gm).
Three w/o microemulsion formulations were tested which contained 3% v/v aqueous phase volume, and varying amounts of calcitonin/ml of emulsion. Two, Formulations A and B below, were formulated as liquids; the third microemulsion (Formulation C) was formulated in semi-solid (suppository) form by addition of a high-melting coconut oil to the microemulsion. […]
Serum was prepared from each blood sample and serum Ca^+2 (free ionized calcium) levels were determined using a Beckman calcium clinical assay kit.

[1] = rat, in vivo
Protocol: A series of experiments was carried out using rats with the w/o microemulsion of this invention to evaluate them as a vehicle for the delivery of the human growth hormone, hGH. The body fluids of the rats served to convert the microemulsion to an o/w emulsion which activated the drug and promoted drug uptake across the mucosal membrane of the rat colon.
The rats were approximately 100 grams and were fasted for 24 hours prior to testing.
The injected group, Group C, received the extracted hGH in a buffer solution at the human equivalent dose of 0.05 mg/kg body weight. The two rectal administration groups, Groups A and B, received ten times the human equivalent dose.
The rats were anaesthetized just prior to dosing. Suppositories (Group A) and the buffer solution (Group B) administered rectally were sealed in the rectum by a plug and liquid cement. Group C animals were injected subcutaneously (SQ). After administering the dosage, serum hGH levels were determined at 30, 60, 120, 180, 240, and 300 minutes. […] The blood was centrifuged and the serum assayed by hGH ELISA (Medix Lab, Foster City, Calif.) for quantitation of the extracted growth hormone.
The AUC (area under the curve) for both routes of administration was determined using the trapezoid rule (M. Gibaldi, Biopharmaceutics and Clinical Pharmacokinetics, Lea and Febiger, Philadelphia, Pa., 1984, pp. 315-16). […]

[2] = Percent activity of horseradish peroxidase (OPD assay, 492 nm) after storage at 50° C.; type: physicochemical
Protocol: In Example 10, the protein horseradish peroxidase (HRP), was stored for given times and temperatures, then assayed in vitro, as shown in this example.
After storage for the specified time at 50° C., the microemulsion was then converted to an o/w emulsion by the addition of water. This was achieved by pipetting 30 μL of the microemulsion containing the horseradish peroxidase enzyme into 970 μL of 0.9 wt. % saline (NaCl) solution.
After conversion, the emulsion was then assayed for activity. This activity was compared with the activity of stock solutions of HRP which had been maintained at 50° C. for the same time and then pipetted into saline (30 μL into 970 μL of saline) in the same manner as the microemulsion above. The stock HRP was first diluted to the same HRP concentration as in the aqueous phase of the converted microemulsion.
The assay was carried out as follows:
1. Set spectrophotometer at 492 nm and 25° C.
2. Into the cuvette, pipet 2.97 mL OPD (O-phenylene diamine) buffer solution (1 tab.→26 mL)
3. Establish blank at 492 nm.
4. Into the cuvette, pipet 25 μL diluted control HRP solution. Mix and record the increase in absorbance at 492 nm for 5 minutes.
5. Same procedure is followed for microemulsion w/HRP solution. OPD=O-phenylene diamine
Percent activity was determined by using the following equation: [formula]

With calcitonin [Saline] as the substance, how does the “serum calcium response to rectal administration (in words)” value (Spraque-Dawley rats) read?
The value was “no significant response”.

With human growth hormone [hGH in buffer] as the substance, how does the “uptake of the drug” value [1] read?
The value was “no uptake of the drug”.

Which “% Activity” value ([2]; Time 0 hours, converted with saline before assay) does the source give for horseradish peroxidase [Control HRP] here?
Its value is 100%.

And the “% Activity” value ([2]; Time 3 hours)?
The value was 76%.

What about the “% Activity” value ([2]; Time 6 hours) of the same substance?
Its value is 73%.

And the “% Activity” value ([2]; Time 24 hours)?
The value was 20%.

What about the “% Activity” value ([2]; Time 27 hours) of the same substance?
Its value is 20%.

And the “% Activity” value ([2]; Time 48 hours)?
The value was 11%.

Which “AUC (area under the curve), trapezoid rule” value [1] does the source give for human growth hormone [Group C] here?
The value was “approximately 24.5 ng-hr/ml”.
